According to US7012128B2, “Interaction between cyclin D1 and steroid receptor co-activators and uses thereof in assays” (TopoTarget UK Limited, priority 1998, dated 2006):

Target: T1, ER (Homo sapiens, UniProt P03372)
T1 sequence (P03372 1-595): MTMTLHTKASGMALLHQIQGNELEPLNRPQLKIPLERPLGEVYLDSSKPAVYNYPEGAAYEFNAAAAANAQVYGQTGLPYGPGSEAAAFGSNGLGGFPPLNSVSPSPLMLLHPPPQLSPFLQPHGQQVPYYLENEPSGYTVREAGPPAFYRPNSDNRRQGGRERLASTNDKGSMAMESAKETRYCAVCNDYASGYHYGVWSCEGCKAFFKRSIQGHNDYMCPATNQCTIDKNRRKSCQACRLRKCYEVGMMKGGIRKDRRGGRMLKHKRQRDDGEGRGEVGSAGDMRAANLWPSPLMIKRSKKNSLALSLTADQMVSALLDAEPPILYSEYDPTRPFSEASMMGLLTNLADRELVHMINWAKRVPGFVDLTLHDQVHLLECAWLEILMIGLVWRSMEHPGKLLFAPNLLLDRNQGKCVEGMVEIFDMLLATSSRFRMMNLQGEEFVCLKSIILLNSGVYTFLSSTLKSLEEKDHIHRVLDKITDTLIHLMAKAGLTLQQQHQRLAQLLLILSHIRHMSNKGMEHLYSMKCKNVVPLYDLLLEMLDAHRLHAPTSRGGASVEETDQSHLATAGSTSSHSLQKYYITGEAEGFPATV
Assay: ER activation, ERE-reporter gene, in MCF-7 cells
Assay type: cell-based
Parameters: T47D and MCF-7, which contain endogenous wild type ER; endogenous in cells; host or cells: MCF-7; T47D
Settings: MCF-7, relative high levels of cyclin D1; 17β-estradiol enriched medium
Text: The ER-containing T47D and MCF-7 breast cancer cells were maintained in 17β-estradiol enriched medium with 10%fetal calf serum after cotransfection with a cyclin D1 L254/255A mutant expression vector and an ERE-reporter gene for testing its effect on ER activation (left panel). ER transactivation in the absence of co-expression of the cyclin D1 mutant was set at 100%.
To get more insight in the role of cyclin D1 in ER transactivation in breast cancers with elevated levels of cyclin D1, we have tested the effect of the mutant cyclin D1 L254/255A on ER activation in two different breast cancer cell lines. This cyclin D1 mutant does bind to ER, but fails both to interact with SRC-1 as shown above and consequently fails to activate ER (FIG. 1B). Therefore, this mutant can act as a dominant negative in cyclin D1-mediated ER transactivation as it binds to ER and fails to recruit coactivators. We tested the effect of this cyclin D1 mutant on ER activation in two breast cancer cell lines, T47D and MCF-7, which contain endogenous wild type ER, but differ in their cyclin D1 protein levels (FIG. 6). […] In contrast, in MCF-7, which contain relative high levels of cyclin D1 (FIG. 6), the cyclin D1 mutant inhibited up to 50% of ER activity. Thus, this dominant negative cyclin D1 mutant preferentially interferes with ER activation in breast cancer cells that have high levels of cyclin D1 protein.

Substance: Cyclin D1-LALA: cyclin D1 mutant in which leucines 254 and 255 were mutated to alanines; dominant negative
- inhibition of ER activity: up to 50%
